Experimental data published in article PMC6511868.

How the values were obtained:
[1] = molecular target: uL23 as bait of the co-IP of Figure 1C (tag not told) (UniProt P04456); assay: co-immunoprecipitation, western blot quantification; details: parent: 100
[2] = molecular target: uS3-GFP (S. cerevisiae) (UniProt P05750); assay: co-IP; yeast lysates; GFP-Trap_A beads (GFP-tagged baits) or IgG-Sepharose (TAP-tagged baits), 3 h at 4°C, western blot; wild type and the strains sup45-2, rat8-2, rat7ΔN shifted to 37°C for 1 h; also 0.5 mg/ml cycloheximide for 30 min; also high copy RLI1
Sequence of UniProt P05750 (P05750 whole entry): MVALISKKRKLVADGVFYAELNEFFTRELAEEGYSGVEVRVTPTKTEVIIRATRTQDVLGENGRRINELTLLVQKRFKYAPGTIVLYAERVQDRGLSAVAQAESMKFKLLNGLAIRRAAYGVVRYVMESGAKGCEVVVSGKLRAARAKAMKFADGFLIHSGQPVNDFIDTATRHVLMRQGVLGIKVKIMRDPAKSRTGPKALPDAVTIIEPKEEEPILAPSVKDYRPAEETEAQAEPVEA

Sequence of UniProt P04456 (P04456 whole entry): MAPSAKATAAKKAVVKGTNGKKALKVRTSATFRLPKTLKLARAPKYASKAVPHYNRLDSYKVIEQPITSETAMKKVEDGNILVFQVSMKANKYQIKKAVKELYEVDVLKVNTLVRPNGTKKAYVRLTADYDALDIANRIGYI

percent of parent [1]	co-precipitation relative to wild-type eRF1 [2]	co-precipitation relative to wild-type eRF1, with high copy RLI1 [2]	Substance
46%			eukaryotic release factor 1 (eRF1) (from UniProt P12385) sup45-2
	0.25 of wild type	> 60%	mutated eRF1 protein sup45-2 (from UniProt P12385 1-437) (natural protein)
